Reference: article doi:10.1101/2025.09.16.670041 (bioRxiv, 2025)
“And” between values parts separate entries of the source, which are not always exact repeats. Equal entries are not always repeated. Where two headings read alike, the source gives them in different places. Values belong to the molecule of their own block, whether it stands above or below them. No end group written: not given here. fluorescein = fluorescein (N-terminal fluorescent label on the UBE3A peptide)

What was measured:
[1] = molecular target: biotinylated MBP-fused HERC2 RLD2 domain (residues 2941-3342) (human) (UniProt O95714); assay: native holdup assay
[2] = molecular target: endogenous full-length PCM1 (human (endogenous in SH-SY5Y), UniProt Q15154 1-2024); assay: native holdup assay
[3] = molecular target: endogenous full-length UBE3A from SH-SY5Y cells (human (endogenous in SH-SY5Y), UniProt Q05086 1-875); assay: native holdup assay
[4] = molecular target: endogenous full-length DOCK10 (human (endogenous in SH-SY5Y), UniProt Q96BY6 1-2186); assay: native holdup assay
[5] = molecular target: T1, endogenous full-length ARID4A (human (endogenous in SH-SY5Y), UniProt P29374 1-1257); assay: native holdup assay
T1 sequence (looked up): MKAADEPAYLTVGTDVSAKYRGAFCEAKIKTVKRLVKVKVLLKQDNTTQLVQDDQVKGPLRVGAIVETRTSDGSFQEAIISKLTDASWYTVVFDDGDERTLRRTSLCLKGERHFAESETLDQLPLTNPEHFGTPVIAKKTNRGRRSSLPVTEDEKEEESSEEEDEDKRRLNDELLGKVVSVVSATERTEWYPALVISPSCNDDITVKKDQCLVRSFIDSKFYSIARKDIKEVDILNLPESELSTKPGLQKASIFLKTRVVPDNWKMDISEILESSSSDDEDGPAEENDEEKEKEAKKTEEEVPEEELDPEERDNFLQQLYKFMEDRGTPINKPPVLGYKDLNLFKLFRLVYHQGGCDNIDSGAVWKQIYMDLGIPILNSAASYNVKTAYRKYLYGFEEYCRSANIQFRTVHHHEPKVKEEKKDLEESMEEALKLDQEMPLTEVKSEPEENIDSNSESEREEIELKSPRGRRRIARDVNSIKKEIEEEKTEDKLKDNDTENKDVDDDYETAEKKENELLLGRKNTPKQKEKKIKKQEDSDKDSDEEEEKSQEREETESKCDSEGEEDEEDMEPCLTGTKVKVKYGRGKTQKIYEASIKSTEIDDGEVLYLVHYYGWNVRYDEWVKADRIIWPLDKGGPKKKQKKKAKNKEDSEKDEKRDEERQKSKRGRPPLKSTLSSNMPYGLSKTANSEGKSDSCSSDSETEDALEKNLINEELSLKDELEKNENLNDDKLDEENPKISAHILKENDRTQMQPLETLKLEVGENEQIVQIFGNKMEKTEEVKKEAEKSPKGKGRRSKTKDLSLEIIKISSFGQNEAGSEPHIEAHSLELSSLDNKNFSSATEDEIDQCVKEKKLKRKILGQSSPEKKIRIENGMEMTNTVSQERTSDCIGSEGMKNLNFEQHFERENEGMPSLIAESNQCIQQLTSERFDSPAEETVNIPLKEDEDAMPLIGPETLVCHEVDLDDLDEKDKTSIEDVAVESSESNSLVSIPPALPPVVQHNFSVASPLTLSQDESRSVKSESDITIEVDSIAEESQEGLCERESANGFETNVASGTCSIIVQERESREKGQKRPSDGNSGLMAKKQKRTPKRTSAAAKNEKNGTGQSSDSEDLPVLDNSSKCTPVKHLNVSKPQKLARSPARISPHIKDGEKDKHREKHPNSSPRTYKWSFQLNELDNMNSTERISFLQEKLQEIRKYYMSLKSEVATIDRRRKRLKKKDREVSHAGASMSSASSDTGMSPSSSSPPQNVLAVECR

[6] = molecular target: T2, endogenous full-length UBE3A from mouse brain (mouse (endogenous in mouse brain), UniProt O08759 1-870); assay: native holdup assay
T2 sequence (looked up): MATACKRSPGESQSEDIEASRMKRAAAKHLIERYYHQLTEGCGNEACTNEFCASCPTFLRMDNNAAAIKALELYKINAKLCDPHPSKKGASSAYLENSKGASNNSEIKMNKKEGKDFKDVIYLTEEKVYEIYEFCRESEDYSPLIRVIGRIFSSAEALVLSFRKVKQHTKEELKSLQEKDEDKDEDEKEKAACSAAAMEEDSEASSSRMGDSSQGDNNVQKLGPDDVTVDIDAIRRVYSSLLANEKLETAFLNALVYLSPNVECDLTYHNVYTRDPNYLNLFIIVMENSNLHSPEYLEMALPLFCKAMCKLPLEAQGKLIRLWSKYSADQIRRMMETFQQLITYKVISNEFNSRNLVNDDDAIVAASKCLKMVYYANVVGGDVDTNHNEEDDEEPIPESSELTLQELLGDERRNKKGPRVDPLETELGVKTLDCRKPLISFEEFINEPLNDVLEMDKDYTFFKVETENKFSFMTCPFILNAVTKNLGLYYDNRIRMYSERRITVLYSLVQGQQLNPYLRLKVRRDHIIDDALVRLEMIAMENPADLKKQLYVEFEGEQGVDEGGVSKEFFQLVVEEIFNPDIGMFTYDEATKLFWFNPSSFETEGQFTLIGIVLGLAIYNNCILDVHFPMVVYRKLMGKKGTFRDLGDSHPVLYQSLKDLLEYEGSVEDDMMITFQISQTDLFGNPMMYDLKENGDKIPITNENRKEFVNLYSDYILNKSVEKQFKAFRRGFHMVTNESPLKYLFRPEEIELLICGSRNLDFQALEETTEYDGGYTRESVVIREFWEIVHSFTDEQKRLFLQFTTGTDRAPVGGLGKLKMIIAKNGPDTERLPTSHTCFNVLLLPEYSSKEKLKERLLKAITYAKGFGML

[7] = molecular target: T3, HERC2 RLD2 domain (residues 2941-3342), untagged (human, UniProt O95714 2941-3342); assay: fluorescence polarisation
T3 sequence (looked up): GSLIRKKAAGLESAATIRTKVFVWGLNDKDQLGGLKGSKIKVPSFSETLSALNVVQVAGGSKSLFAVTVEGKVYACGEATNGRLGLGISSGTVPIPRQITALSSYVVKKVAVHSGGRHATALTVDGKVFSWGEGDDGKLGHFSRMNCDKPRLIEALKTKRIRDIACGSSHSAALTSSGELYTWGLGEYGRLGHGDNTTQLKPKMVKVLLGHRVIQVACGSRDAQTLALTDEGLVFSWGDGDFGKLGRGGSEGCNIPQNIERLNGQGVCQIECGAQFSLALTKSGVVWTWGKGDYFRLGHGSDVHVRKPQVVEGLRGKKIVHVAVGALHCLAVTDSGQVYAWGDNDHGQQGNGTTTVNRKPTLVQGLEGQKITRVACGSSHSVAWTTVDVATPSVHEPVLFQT

[8] = molecular target: T4, endogenous full-length HERC2 (human (endogenous in SH-SY5Y), UniProt O95714 1-4834); assay: native holdup assay
T4 sequence (O95714 whole entry): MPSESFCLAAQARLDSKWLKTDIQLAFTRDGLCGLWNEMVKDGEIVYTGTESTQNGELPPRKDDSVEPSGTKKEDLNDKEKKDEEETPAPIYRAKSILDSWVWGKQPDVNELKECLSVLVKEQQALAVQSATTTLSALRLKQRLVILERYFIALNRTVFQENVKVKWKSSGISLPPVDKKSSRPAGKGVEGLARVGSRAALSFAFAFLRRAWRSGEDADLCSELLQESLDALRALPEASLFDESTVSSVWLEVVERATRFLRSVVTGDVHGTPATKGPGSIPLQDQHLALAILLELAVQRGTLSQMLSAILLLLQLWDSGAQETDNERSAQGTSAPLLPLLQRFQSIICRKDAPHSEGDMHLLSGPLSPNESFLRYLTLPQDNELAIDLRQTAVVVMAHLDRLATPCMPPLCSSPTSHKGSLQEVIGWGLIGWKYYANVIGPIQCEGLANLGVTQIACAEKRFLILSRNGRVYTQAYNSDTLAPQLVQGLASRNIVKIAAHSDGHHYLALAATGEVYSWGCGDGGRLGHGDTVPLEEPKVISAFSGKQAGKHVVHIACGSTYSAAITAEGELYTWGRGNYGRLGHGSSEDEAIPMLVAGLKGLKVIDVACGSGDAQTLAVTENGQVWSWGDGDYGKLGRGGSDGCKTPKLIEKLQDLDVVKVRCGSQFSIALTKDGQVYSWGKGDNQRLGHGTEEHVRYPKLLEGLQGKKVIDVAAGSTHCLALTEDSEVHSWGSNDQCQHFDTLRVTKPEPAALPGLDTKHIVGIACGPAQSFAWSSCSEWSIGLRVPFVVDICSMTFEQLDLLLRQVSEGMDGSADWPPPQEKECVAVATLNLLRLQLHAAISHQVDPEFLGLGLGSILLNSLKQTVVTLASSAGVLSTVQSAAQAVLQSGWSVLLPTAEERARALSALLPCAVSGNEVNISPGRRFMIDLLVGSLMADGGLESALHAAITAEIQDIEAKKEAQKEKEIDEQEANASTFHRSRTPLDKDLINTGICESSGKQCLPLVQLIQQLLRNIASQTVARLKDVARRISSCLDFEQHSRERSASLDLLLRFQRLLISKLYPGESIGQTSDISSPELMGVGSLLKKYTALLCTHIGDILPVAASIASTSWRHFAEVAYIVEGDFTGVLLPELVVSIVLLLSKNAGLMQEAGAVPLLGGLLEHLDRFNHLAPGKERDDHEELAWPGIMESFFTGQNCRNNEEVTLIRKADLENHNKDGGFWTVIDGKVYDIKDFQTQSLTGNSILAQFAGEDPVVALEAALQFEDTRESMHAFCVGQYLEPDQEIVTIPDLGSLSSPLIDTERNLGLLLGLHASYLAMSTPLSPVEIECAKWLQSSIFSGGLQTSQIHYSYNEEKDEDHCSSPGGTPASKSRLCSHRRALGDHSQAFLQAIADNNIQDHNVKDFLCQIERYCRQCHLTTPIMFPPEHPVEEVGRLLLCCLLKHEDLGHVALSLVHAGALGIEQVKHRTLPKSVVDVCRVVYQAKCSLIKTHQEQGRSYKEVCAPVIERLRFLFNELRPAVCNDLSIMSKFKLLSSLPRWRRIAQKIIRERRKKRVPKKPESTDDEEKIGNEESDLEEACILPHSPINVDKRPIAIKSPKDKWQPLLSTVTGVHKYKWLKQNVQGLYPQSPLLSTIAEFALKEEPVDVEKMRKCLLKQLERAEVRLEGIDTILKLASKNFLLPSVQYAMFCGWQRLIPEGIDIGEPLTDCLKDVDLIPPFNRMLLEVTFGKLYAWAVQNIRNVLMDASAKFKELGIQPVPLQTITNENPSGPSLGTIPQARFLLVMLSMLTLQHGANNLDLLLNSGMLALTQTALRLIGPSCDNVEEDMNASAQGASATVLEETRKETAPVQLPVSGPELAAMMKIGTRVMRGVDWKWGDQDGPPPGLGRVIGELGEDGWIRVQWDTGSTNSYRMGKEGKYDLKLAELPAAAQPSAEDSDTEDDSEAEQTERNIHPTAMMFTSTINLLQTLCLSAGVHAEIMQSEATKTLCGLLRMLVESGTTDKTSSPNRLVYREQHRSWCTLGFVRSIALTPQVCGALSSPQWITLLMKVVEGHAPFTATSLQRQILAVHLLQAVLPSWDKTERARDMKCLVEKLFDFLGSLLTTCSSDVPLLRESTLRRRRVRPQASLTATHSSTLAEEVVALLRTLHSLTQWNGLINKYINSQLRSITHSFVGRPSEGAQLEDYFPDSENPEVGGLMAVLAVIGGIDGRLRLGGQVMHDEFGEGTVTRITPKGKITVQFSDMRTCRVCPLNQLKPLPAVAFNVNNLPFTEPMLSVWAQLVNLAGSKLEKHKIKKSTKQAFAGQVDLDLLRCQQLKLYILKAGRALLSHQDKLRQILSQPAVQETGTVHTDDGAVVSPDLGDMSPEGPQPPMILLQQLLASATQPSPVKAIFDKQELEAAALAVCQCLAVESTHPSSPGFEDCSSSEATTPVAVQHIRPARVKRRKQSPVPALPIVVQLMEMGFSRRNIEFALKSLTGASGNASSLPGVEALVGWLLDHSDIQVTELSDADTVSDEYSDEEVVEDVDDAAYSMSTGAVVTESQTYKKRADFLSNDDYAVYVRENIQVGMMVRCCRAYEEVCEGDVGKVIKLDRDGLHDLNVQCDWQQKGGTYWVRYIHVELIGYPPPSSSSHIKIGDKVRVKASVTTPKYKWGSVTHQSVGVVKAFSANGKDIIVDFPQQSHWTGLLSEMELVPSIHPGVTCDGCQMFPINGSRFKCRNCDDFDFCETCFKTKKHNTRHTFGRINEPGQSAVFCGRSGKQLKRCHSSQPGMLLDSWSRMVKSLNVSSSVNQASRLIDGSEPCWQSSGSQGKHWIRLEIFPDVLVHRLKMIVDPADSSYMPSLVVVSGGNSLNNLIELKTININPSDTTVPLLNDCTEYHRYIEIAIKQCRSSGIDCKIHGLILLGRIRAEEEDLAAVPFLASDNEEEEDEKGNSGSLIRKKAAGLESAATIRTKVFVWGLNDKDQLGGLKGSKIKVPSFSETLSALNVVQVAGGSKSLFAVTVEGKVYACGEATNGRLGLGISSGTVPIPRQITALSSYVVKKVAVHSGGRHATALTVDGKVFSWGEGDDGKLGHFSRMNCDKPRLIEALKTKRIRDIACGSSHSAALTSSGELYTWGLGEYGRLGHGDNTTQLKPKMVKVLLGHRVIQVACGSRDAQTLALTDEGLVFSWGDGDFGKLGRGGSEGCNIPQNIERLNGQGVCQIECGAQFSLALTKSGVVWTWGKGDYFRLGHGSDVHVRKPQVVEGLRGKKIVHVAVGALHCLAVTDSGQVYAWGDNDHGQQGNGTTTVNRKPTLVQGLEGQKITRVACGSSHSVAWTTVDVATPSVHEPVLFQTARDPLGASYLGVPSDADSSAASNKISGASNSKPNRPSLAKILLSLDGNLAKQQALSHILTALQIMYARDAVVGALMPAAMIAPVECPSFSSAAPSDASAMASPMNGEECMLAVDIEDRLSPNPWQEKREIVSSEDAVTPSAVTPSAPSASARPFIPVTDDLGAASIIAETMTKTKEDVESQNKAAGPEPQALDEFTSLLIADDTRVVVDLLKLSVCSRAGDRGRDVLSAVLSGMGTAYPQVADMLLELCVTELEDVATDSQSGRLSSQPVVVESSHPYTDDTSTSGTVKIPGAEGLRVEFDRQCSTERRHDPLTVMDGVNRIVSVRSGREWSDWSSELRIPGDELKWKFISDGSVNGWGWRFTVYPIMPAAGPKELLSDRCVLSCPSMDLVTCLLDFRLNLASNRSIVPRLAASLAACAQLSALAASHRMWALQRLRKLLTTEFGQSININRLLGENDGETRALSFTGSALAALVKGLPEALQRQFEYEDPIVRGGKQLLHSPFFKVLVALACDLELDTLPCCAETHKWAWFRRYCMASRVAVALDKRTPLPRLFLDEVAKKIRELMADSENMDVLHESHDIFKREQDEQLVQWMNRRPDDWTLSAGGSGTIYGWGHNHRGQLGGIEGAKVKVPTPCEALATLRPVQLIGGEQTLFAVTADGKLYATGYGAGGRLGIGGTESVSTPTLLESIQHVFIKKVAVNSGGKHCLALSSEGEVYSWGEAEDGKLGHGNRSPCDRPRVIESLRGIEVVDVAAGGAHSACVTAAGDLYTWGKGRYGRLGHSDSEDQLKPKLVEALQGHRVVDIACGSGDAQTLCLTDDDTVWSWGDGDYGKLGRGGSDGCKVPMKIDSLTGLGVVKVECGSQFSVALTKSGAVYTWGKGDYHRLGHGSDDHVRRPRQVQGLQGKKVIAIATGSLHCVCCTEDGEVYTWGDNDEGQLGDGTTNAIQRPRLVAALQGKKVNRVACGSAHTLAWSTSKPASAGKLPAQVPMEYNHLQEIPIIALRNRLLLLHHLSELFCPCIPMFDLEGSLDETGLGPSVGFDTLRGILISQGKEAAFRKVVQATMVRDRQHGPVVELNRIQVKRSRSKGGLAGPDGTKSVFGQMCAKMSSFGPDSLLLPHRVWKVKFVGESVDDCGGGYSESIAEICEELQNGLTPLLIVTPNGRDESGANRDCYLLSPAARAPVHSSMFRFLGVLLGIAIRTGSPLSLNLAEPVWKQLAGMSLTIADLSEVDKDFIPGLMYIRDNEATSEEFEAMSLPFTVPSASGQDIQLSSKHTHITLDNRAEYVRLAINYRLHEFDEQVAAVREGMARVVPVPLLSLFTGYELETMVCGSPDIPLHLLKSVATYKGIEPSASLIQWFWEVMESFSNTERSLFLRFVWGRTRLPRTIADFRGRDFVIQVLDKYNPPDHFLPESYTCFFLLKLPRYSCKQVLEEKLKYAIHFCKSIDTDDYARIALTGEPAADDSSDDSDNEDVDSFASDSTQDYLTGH

[9] = molecular target: T4, endogenous full-length HERC2; assay: native holdup assay; remark: listed apart in the source

B1: biotinylated MBP-fused HERC2 RLD2 domain (residues 2941-3342) (domain or fragment, human, UniProt O95714 2941-3342, looked up)
chain: GSLIRKKAAGLESAATIRTKVFVWGLNDKDQLGGLKGSKIKVPSFSETLSALNVVQVAGGSKSLFAVTVEGKVYACGEATNGRLGLGISSGTVPIPRQITALSSYVVKKVAVHSGGRHATALTVDGKVFSWGEGDDGKLGHFSRMNCDKPRLIEALKTKRIRDIACGSSHSAALTSSGELYTWGLGEYGRLGHGDNTTQLKPKMVKVLLGHRVIQVACGSRDAQTLALTDEGLVFSWGDGDFGKLGRGGSEGCNIPQNIERLNGQGVCQIECGAQFSLALTKSGVVWTWGKGDYFRLGHGSDVHVRKPQVVEGLRGKKIVHVAVGALHCLAVTDSGQVYAWGDNDHGQQGNGTTTVNRKPTLVQGLEGQKITRVACGSSHSVAWTTVDVATPSVHEPVLFQT
modifications: biotin on the AviTag (in vivo biotinylation)
Kd [2]: 260 ± 40 nM
Kd [3]: < 100 nM and ~100 nM
Kd [4]: 2600 ± 500 nM
Kd [5]: < 100 nM
Kd [6]: ~100 nM

Molecule: fluorescein-SLQAKDEDKDEDEKEKAA [UBE3A 18-aa linked to fluorescein]
binding result [7]: binds

Molecule: AKDEDKDEDEKEKAA (peptide, UniProt Q05086-2 160-174, looked up) [UBE3A peptide residues 160-174]
Kd [7]: 6.85 ± 0.29 µM

B3: UBE3A peptide residues 150-200 (peptide, UniProt Q05086-2 150-200, looked up)
peptide: HTKEELKSLQAKDEDKDEDEKEKAACSAAAMEEDSEASSSRIGDSSQGDNN
binding result [7]: binds

The remaining lines, values ahead:

Kd [1]: 100 nM
Molecule: endogenous full-length UBE3A from zebrafish embryos (enzyme)

Kd [1]: > 10000 nM
Molecule: endogenous full-length MYT1 (from UniProt Q01538 1-1121) (natural protein)

Kd [7]: < 0.1 µM
Molecule: HTKEELKSLQAKDEDKDEDEKEKAA [non-labeled UBE3A peptide residues 150-174]

Kd [8]: 560 ± 150 nM
B2: biotinylated full-length MBP-fused UBE3A protein (enzyme, human, UniProt Q05086-2 1-852, looked up)
chain: MKRAAAKHLIERYYHQLTEGCGNEACTNEFCASCPTFLRMDNNAAAIKALELYKINAKLCDPHPSKKGASSAYLENSKGAPNNSCSEIKMNKKGARIDFKDVTYLTEEKVYEILELCREREDYSPLIRVIGRVFSSAEALVQSFRKVKQHTKEELKSLQAKDEDKDEDEKEKAACSAAAMEEDSEASSSRIGDSSQGDNNLQKLGPDDVSVDIDAIRRVYTRLLSNEKIETAFLNALVYLSPNVECDLTYHNVYSRDPNYLNLFIIVMENRNLHSPEYLEMALPLFCKAMSKLPLAAQGKLIRLWSKYNADQIRRMMETFQQLITYKVISNEFNSRNLVNDDDAIVAASKCLKMVYYANVVGGEVDTNHNEEDDEEPIPESSELTLQELLGEERRNKKGPRVDPLETELGVKTLDCRKPLIPFEEFINEPLNEVLEMDKDYTFFKVETENKFSFMTCPFILNAVTKNLGLYYDNRIRMYSERRITVLYSLVQGQQLNPYLRLKVRRDHIIDDALVRLEMIAMENPADLKKQLYVEFEGEQGVDEGGVSKEFFQLVVEEIFNPDIGMFTYDESTKLFWFNPSSFETEGQFTLIGIVLGLAIYNNCILDVHFPMVVYRKLMGKKGTFRDLGDSHPVLYQSLKDLLEYEGNVEDDMMITFQISQTDLFGNPMMYDLKENGDKIPITNENRKEFVNLYSDYILNKSVEKQFKAFRRGFHMVTNESPLKYLFRPEEIELLICGSRNLDFQALEETTEYDGGYTRDSVLIREFWEIVHSFTDEQKRLFLQFTTGTDRAPVGGLGKLKMIIAKNGPDTERLPTSHTCFNVLLLPEYSSKEKLKERLLKAITYAKGFGML
modifications: biotin on the AviTag (in vivo biotinylation)

Kd [9]: 340 ± 90 nM
Molecule: HTKEELKSLQAKDEDKDEDEKEKAA (also: biotin, position not given here) [biotinylated UBE3A peptide containing amino acids 150-174]
